{"source": "patent US20260098270", "about": "“MULTIVALENT TRIDENT […] FOR MOLECULAR RECOGNITION, METHODS OF MAKING AND USES […]” (MCMASTER UNIVERSITY, published 2026)", "binders": {"B1": {"name": "Trimeric (trident) RHA06 (ssDNA)", "DNA": "GGGTTTGGGTTGGGTTGGGTTTTTGGGTTTGGGTTGGGTTGGGAAAAATTTTTCTCTCGC", "modifications": "three identical arms (SEQ 12) joined by Trebler, root TTTTT-Biotin"}, "B2": {"name": "TMSA52T8 (ssDNA)", "DNA": "CGAAGCATCTCGTGTCACTCCGTAGGGTTTGGCTCCGGGCCTGGCGTCGTTTTTCTCTCGC", "modifications": "three identical arms joined by Trebler, root TTTTT-Biotin"}, "B3": {"name": "TMSA52-B (ssDNA)", "DNA": "TTACGTCAAGGTGTCACTCCGTAGGGTTTGGCTCCGGGCCTGGCGTCGGTCGTCTCTCGCGAAGCATCTCTTTGGCGTGTTTTTTTTTTTTTTT", "modifications": "three identical arms joined by Trebler, root TTTTT-Biotin"}}, "key": {"[1]": {"biological_target": "T1, Bovine serum albumin (BSA) (Bos taurus, UniProt P02769 P02769:25-607)", "T1 sequence (P02769 25-607, one chain of several)": "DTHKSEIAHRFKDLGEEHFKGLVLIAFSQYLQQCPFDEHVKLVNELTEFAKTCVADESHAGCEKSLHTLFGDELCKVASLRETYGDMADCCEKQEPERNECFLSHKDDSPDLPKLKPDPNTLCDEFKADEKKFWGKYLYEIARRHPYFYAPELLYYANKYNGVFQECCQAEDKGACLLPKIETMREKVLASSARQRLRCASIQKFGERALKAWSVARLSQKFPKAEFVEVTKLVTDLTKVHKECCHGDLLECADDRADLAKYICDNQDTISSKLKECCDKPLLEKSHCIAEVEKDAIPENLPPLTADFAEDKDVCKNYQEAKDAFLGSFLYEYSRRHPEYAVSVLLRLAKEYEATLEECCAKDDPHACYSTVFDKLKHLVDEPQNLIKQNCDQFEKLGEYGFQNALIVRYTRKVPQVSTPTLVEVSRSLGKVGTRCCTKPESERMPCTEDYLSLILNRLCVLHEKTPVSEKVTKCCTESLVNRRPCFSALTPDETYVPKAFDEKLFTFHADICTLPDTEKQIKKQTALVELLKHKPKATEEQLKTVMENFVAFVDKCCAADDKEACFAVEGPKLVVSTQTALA", "experiment": "filter; dot blot, no binding", "settings": "tags: Sigma-Aldrich A7906; label: 5'-32P"}, "[2]": {"biological_target": "SARS-CoV-2 spike S1 subunit (SARS-CoV-2, UniProt P0DTC2 P0DTC2:14-685)", "experiment": "filter"}, "[3]": {"biological_target": "VEGF165 (UniProt P15692-4 P15692-4:27-191)", "sequence (P15692 other isoform, or with tags, fused parts or gaps)": "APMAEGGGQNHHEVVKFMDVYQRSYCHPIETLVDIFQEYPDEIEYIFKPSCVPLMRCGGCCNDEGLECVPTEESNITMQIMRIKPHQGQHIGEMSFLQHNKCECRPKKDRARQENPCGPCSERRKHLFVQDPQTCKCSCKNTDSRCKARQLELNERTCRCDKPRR", "experiment": "filter", "settings": "chain copies: 2 (stated dimeric)"}, "[4]": {"biological_target": "T2, Amylase (UniProt P0DUB6 P0DUB6:16-511)", "T2 sequence": "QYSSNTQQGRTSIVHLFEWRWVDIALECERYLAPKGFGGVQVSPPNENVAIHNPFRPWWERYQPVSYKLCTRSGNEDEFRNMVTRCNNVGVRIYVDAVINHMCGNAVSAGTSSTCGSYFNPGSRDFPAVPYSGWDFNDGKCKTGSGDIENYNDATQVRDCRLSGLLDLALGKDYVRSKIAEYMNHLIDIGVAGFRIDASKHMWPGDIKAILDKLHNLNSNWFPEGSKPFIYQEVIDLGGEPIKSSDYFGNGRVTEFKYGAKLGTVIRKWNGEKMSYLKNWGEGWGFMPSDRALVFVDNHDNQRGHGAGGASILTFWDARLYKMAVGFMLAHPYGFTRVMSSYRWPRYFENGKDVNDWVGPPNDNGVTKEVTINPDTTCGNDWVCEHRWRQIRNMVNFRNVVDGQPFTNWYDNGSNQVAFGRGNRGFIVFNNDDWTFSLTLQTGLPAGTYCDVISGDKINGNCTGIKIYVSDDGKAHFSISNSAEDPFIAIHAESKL", "experiment": "ELONA", "settings": "tags: Sigma-Aldrich A1031"}, "[5]": {"biological_target": "SARS-CoV-1 spike protein (SARS-CoV-1, UniProt P59594 P59594:14-1195)", "experiment": "ELONA", "settings": "tags: from Dr. Matthew Miller's lab, McMaster University; label: biotin"}, "[6]": {"biological_target": "Spike RBD of seasonal coronavirus OC43 (Human coronavirus OC43, UniProt P36334 P36334:333-607)", "sequence (P36334 333-607, one chain of several)": "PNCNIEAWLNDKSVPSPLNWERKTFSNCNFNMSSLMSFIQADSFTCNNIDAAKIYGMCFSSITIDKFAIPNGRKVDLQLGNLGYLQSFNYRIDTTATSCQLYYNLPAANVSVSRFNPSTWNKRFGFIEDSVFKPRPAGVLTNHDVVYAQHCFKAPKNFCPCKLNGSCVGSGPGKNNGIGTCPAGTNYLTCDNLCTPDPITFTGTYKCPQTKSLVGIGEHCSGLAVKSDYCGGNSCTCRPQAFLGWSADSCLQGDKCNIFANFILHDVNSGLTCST", "experiment": "ELONA", "settings": "tags: from Dr. Matthew Miller's lab, McMaster University"}, "[7]": {"biological_target": "Spike RBD of seasonal coronavirus 229E (Human coronavirus 229E, UniProt P15423 P15423:293-435)", "sequence (P15423 293-435, one chain of several)": "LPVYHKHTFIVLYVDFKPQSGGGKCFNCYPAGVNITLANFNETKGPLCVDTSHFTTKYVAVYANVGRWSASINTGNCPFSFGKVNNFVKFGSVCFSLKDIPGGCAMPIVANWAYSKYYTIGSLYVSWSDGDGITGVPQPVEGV", "experiment": "ELONA", "settings": "tags: from Dr. Matthew Miller's lab, McMaster University"}, "[8]": {"biological_target": "T1, Bovine serum albumin (BSA)", "experiment": "ELONA", "settings": "tags: Sigma-Aldrich A7906"}}, "data": [{"binder": "B1", "values": [{"measurement": "binding result", "setting": "[1]", "value": "no binding"}]}, {"binder": "B2", "values": [{"measurement": "Kd", "setting": "[2]", "value": 0.21, "unit": "nM"}]}, {"binder": "GCCCGTCTTCCAGACAAGAGTGCAGGGC (ssDNA)", "note": "[H1A]", "values": [{"measurement": "Kd", "setting": "[3]", "value": 21.3, "unit": "nM"}]}, {"binder": "GCCCGTCTTCCAGACAAGAGTGCAGGGCTTTTTCTCTCGC (ssDNA, three identical arms joined by Trebler, root TTTTT-Biotin)", "note": "[Trimeric (trident) H1A]", "values": [{"measurement": "Kd", "setting": "[3]", "value": 0.27, "unit": "nM"}]}, {"binder": "CGAAGCATCTCGTGTCACTCCGTAGGGTTTGGCTCCGGGCCTGGCGTCG (ssDNA)", "note": "[MSA52T8]", "values": [{"measurement": "Kd", "setting": "[2]", "value": 6.5, "unit": "nM"}]}, {"binder": "B3", "values": [{"measurement": "binding result", "setting": "[4]", "value": "no binding"}, {"measurement": "binding result", "setting": "[5]", "value": "no binding"}, {"measurement": "binding result", "setting": "[6]", "value": "no binding"}, {"measurement": "binding result", "setting": "[7]", "value": "no binding"}, {"measurement": "binding result", "setting": "[8]", "value": "no binding"}]}]}
